Source: PMC8341984

Molecular target: CFP-cA1-cA1, two chicken ASIC1 subunits concatenated in a dimer with an N terminal CFP (chicken) (UniProt Q1XA76)
Assay: FRET or BRET; FLIM-FRET: lifetime of the CFP donor at the plasma membrane of single live HEK293T ASIC1 KO cells co-transfected at varying cDNA ratios; multi-photon excitation at 860 nm, single exponential fits

- FRET efficiency (1:15 ratio): 15%
Substance: C4 YFP, chicken ASIC1 with YFP at the C4 position of the C tail (from UniProt Q1XA76 1-527) (natural protein)
